Laboratory results published in patent publication US20110287036A1, “NOVEL CANCER TARGETING THERAPY USING COMPLEX OF SUBTANCE CAPABLE OF BINDING SPECIFICALLY TO CONSTITUENT FACTOR OF CANCER STROMA AND ANTI-TUMOR COMPOUND” (RIKEN, priority 2008, published 2011).

System: PSN1 or SUIT2
Assay: In vivo imaging of IRDye800-labeled antibodies in tumor-bearing mice
Design: species or system BALB/c nude mouse
Settings: imaged 1, 3, 7 and 14 days after administration
Protocol: PSN1 or SUIT2 was transplanted to the back of each BALB/c nude mouse (female, 6-week-old); 10 days after the transplantation, each antibody (labeled with IRDye800 (Li-Cor)) was administered from a tail vein of the mouse. 1 day, 3 days, 7 days, and 14 days after the administration, the antibody distribution was analyzed using the in vivo imaging apparatus OV110 (Olympus).
In the figure, CD20 stands for the antihuman CD20 antibody, EpCAM for the antihuman EpCAM antibody, and Col. 4 for the antimouse type IV collagen antibody.

## antihuman CD20 antibody: monoclonal antibody against human B cells, does not react with SUIT2; control
IRDye800-labeled antibody via tail vein 10 days after transplantation
  accumulation in tumor tissue: accumulated selectively in tumor tissue due to an EPR effect
IRDye800-labeled antibody via tail vein
  duration of stay in / disappearance from tumor tissue: disappeared from the tumor tissue earlier than the antimouse type IV collagen antibody
